Assays:
Assay in all cases: Ni-NTA co-precipitation after co-expression in E. coli
[1] = target: PB2 residues 252-490 with N-terminal hexa-histidine tag and TEV cleavage site (influenza A/Puerto Rico/8/34 H1N1, UniProt B4URE6 252-490)
[2] = target: T1, PB2 residues 37-174 with N-terminal hexa-histidine tag and TEV cleavage site (influenza A/Puerto Rico/8/34 H1N1, UniProt A4GCJ6 37-174)
T1 sequence: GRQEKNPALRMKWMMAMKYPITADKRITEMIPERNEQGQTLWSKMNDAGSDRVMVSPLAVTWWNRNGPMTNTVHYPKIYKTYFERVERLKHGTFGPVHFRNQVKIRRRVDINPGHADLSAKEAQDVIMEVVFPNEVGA

[3] = target: T2, PB2-N (residues 1-86) carrying a hexa-histidine tag at the N-terminal end (influenza A/Puerto Rico/8/34 H1N1, UniProt A4GCJ6 1-86)
T2 sequence: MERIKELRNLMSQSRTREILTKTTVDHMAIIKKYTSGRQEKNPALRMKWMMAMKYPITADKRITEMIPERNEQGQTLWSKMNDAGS

B1: PB1-C (C-terminal residues 678-757 of the RNA polymerase PB1 subunit, influenza A/Puerto Rico/8/34 H1N1) (other)
chain: SQRGVLEDEQMYQRCCNLFEKFFPSSSYRRPVGISSMVEAMVSRARIDARIDFESGRIKKEEFTEIMKICSTIEELRRQK
binding result [1]: no binding
binding result [2]: no binding
binding result [3]: binds
